This is an account of results in PMC9019756.

For this data set, the target named is T1, His6-PhoP (Actinosynnema pretiosum X47 (derived from A. pretiosum subsp. auranticum ATCC 31565)) (UniProt A0A290ZEW1).
T1 sequence: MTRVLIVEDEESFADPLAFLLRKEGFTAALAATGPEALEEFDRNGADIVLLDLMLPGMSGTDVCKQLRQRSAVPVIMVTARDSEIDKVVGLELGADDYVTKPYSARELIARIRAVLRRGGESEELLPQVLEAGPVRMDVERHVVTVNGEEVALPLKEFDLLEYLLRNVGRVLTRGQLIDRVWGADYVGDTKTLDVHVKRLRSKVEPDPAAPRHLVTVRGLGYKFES
Description: EMSA. To be noted: EMSA: 100 fmol biotin probe, binding buffer (composition not given), poly(dI-dC), 20-30 min at room temperature, 8% native PAGE; protein dialyzed in 50 mM ….

Regarding “GTGACTGGAGTTCCTTTTCGCGCAACAGCCGGTACCGGGTTCAGGTTAAACCGAGCAAGATAGCCCTAGAGGGGACACCAGCGGATACAGAGAGCAACAAAACAGGCACGTACAGAAGTCTTGTTAGCCCAGAAGGGTGATAAACGCCCCGATGTCGAGCGTTCCTCGCCACAGACACGTCACATCTGGCGAACTCGGTCGTTTGCTAGGCCGGGAAGGGAGAAGAGGGTAACGACGAGTCGTGTAGGGAAAGA (double strand) [ssgB promoter probe]”, the binding entry is recorded as “binds”.
The entry for “GTGACTGGAGTTCCTTACCCCGATCCGGTGACCGGGGCCGGCGGCCCAGCCCCGGTCCCGCGATCCGCGAAAGCAGCCGCGAACCGCCGCTGACCTGGTCGAACGGCCCGCTGGAAGATCGCTTGAGCACCGCCGACGACGAGCGTCGACGCCCCCGCCCCGCAGCGGGCGGGGGCAGTCCCCCGTTGGAGTGCTCAGCTCCCCCCGGCGACGGCCGTACTAGGCGGCGGTCGTGTAGGGAAAGA (double strand) [fliM promoter probe]” is “no binding”.
The entry for “TCTTTCCCTACACGACCGGCTTCCGTCCTTGGATGTCGGGCATCGGGCCCGTCCGTGGGTCCGTGGCGTTACAAACGGCAGTGCGCCTTCACTCCTGAGGGGGAACGAAGGGCGGCCAGGGTGGAGAAGGCCCGGCCGCCCGTCACCCGTAAGGAACTCCAGTCAC (double strand) [swrD promoter probe]” is “no binding”.
